# From paper PMC4120239 (Nature communications, 2014)
# Positions count from the first letter of the chain named.
# B1: F779 scFv, somatically mutated (scFv, V domains shown)
# VH: QVQLVQSGADVKKPGASVKVSCTASGNTFTTYSLHWVRQAPGQGLEWMGVIDPSGGSTSYAQKFQGRLTMTRDTSTSTFYMELSSLRSEDTAVYYCARSIESISGRTLGYWGQGTLVTVSS
# VL: DIVMTQTPLSSPVTLGQPASISCRSSETLVHSDGNTYLSWLQQRPGQPPRLLIYKISNRFSGVPDRFSGSGAGTDFTLKISRVEAEDVGVYYCLQATEFPYTFGQGTKLEIK
# B2: PVE4-8 scFv mAb, somatically mutated (scFv, V domains shown)
# VH: QVQLVQSWAEVKKPGASVKFSCKASGYTFTAYYMHWVRQAPGQGLEWMGIINPSGGIATYAEKFQGRVTMTRDTSTTTVYMELSSLRSQDAAVYYCARDRQGFDLDVWGQGTTVTVSS
# VL: ELVLTQPPSASGSPGQSVTISCTGTSSDVGGYNYVSWYQQHPGKAPKLMIYEVNKRPSGVPDRFSGSRSGNTASLTVSGLQAEDEADYYCSSYAGSNNLVFGGGTKVTVL
# B3: 4.2 scFv mAb, somatically mutated (scFv, V domains shown)
# VH: EVQLVQSGAEVKKPGASLKVSCQASGYIFTSHYIHWVRQAPGQGLEWMGIINPSGGKTTFAQKFQGRVTMTRDTSTRTVYMEMSGLRSEDTAVYYCARDQSLGMDVWGQGTTVIVSS
# VL: B2 VL with V3A, A10V, V18I, N54S, P61S, D62N, R68K, V77I, L99W, V107L
# B4: 3.2 scFv mAb, somatically mutated (scFv, V domains shown)
# VH: QVQLVQSGAEVKKPGASVKVSCKASGYTFTSYYMHWVRQAPGHGLEWMGIINPSGGIANYAQKFQGRVTMTRDTSTSTVYMDLSSLTSEDTAVYYCARDLGGFDFDYWGQGTLVTVSS
# VL: ELALTQPPSVSGSPGQSVTISCTGTSSDIGRYNFVSWYQQHPGKAPKLMIYEIYKRPSGVPDRFSGSRSGNTASLTVSGLQAEDEADYYCSSYVGNNDLVFGGGTQLTVL
# Target: desmoglein 3 (Dsg3) on Dsg3 ELISA plates (Homo sapiens, UniProt P32926)
# Sequence (P32926 50-615): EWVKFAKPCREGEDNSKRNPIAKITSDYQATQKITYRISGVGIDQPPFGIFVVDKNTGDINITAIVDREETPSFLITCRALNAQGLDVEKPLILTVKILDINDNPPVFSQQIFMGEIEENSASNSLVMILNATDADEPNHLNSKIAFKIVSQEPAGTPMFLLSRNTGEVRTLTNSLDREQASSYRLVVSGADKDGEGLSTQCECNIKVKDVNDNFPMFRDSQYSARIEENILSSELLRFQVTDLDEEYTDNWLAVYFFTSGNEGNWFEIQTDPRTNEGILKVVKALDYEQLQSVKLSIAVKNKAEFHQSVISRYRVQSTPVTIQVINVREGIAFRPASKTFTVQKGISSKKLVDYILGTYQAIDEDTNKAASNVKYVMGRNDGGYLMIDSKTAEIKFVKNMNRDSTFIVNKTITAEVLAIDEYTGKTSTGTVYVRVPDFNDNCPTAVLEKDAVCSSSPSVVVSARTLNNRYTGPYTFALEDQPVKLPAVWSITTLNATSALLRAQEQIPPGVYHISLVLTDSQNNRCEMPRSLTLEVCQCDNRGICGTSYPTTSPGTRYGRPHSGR
# Experiment: ELISA
row,Binder,binding result
1,B1,binds

# Target: Dsg3-Fc recombinant fusion protein (Homo sapiens, UniProt P32926)
# Sequence (P32926 50-615): as above
# Experiment: SPR
Binder,Kd,koff,kon
B1,1.77 nM,0.000548 s⁻¹,310000 M⁻¹ s⁻¹
B2,2.39 nM,0.00123 s⁻¹,515000 M⁻¹ s⁻¹
B3,0.182 nM,0.000712 s⁻¹,3.91e+06 M⁻¹ s⁻¹
B4,1.42 nM,0.00231 s⁻¹,1.62e+06 M⁻¹ s⁻¹
